Measurements reported in the supplement of paper PMC5998384.

What was measured:
HeLa Kyoto [1] = test: solubility change mitosis vs G1/S (difference of NP-40 vs SDS log2 ratios) (log2 ratio difference); higher = more soluble in mitosis
HeLa Kyoto [2] = test: melting temperature (median over replicates), in situ; higher = more thermally stable
HeLa Kyoto [3] = test: solubility in G1/S (NP-40 vs SDS abundance) (log2 ratio); higher = more soluble; details: cell cycle stage: G1/S
HeLa Kyoto [4] = test: thermal stability score vs G1/S (z-score of summed log2 fold changes over temperatures); higher = more thermally stable than in G1/S
[5] = cell cycle stage: early G1 (4.5 h after nocodazole release)
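Wherever melting temperature (median over replicates), in situ is given: HeLa Kyoto cells synchronized by double thymidine or nocodazole block, proteins quantified by TMT10plex mass spectrometry, three independent biological replicates.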
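Wherever solubility change mitosis vs G1/S (difference of NP-40 vs SDS log2 ratios) is given: synchronized HeLa Kyoto cells (double thymidine block for G1/S, nocodazole release for mitosis), protein amounts in NP-40 versus SDS lysates quantified by mass spectrometry, three biological replicates.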
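Wherever solubility in G1/S (NP-40 vs SDS abundance) is given: HeLa Kyoto cells arrested at G1/S by double thymidine block, proteins quantified by TMT10plex mass spectrometry in mild NP-40 versus SDS extracts, three biological replicates.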
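Wherever thermal stability score vs G1/S (z-score of summed log2 fold changes over temperatures) is given: synchronized HeLa Kyoto cells, proteins quantified by TMT10plex mass spectrometry, three biological replicates, mitosis taken 0.5 h after nocodazole release, G1/S directly after double thymidine block.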

Sequence: MAAQVTLEDALSNVDLLEELPLPDQQPCIEPPPSSLLYQPNFNTNFEDRNAFVTGIARYIEQATVHSSMNEMLEEGQEYAVMLYTWRSCSRAIPQVKCNEQPNRVEIYEKTVEVLEPEVTKLMNFMYFQRNAIERFCGEVRRLCHAERRKDFVSEAYLITLGKFINMFAVLDELKNMKCSVKNDHSAYKRAAQFLRKMADPQSIQESQNLSMFLANHNKITQSLQQQLEVISGYEELLADIVNLCVDYYENRMYLTPSEKHMLLKVMGFGLYLMDGSVSNIYKLDAKKRINLSKIDKYFKQLQVVPLFGDMQIELARYIKTSAHYEENKSRWTCTSSGSSPQYNICEQMIQIREDHMRFISELARYSNSEVVTGSGRQEAQKTDAEYRKLFDLALQGLQLLSQWSAHVMEVYSWKLVHPTDKYSNKDCPDSAEEYERATRYNYTSEEKFALVEVIAMIKGLQVLMGRMESVFNHAIRHTVYAALQDFSQVTLREPLRQAIKKKKNVIQSVLQAIRKTVCDWETGHEPFNDPALRGEKDPKSGFDIKVPRRAVGPSSTQLYMVRTMLESLIADKSGSKKTLRSSLEGPTILDIEKFHRESFFYTHLINFSETLQQCCDLSQLWFREFFLELTMGRRIQFPIEMSMPWILTDHILETKEASMMEYVLYSLDLYNDSAHYALTRFNKQFLYDEIEAEVNLCFDQFVYKLADQIFAYYKVMAGSLLLDKRLRSECKNQGATIHLPPSNRYETLLKQRHVQLLGRSIDLNRLITQRVSAAMYKSLELAIGRFESEDLTSIVELDGLLEINRMTHKLLSRYLTLDGFDAMFREANHNVSAPYGRITLHVFWELNYDFLPNYCYNGSTNRFVRTVLPFSQEFQRDKQPNAQPQYLHGSKALNLAYSSIYGSYRNFVGPPHFQVICRLLGYQGIAVVMEELLKVVKSLLQGTILQYVKTLMEVMPKICRLPRHEYGSPGILEFFHHQLKDIVEYAELKTVCFQNLREVGNAILFCLLIEQSLSLEEVCDLLHAAPFQNILPRVHVKEGERLDAKMKRLESKYAPLHLVPLIERLGTPQQIAIAREGDLLTKERLCCGLSMFEVILTRIRSFLDDPIWRGPLPSNGVMHVDECVEFHRLWSAMQFVYCIPVGTHEFTVEQCFGDGLHWAGCMIIVLLGQQRRFAVLDFCYHLLKVQKHDGKDEIIKNVPLKKMVERIRKFQILNDEIITILDKYLKSGDGEGTPVEHVRCFQPPIHQSLASS [CYFIP1]
- solubility change mitosis (log2) (HeLa Kyoto [1]): -0.136
- melting temperature (HeLa Kyoto [2]; cell cycle stage: G1/S): 51.6 °C
- melting temperature (HeLa Kyoto [2]; cell cycle stage: mitosis): 51.1 °C
- solubility in G1/S (log2) (HeLa Kyoto [3]): -0.33
- thermal stability score (HeLa Kyoto [4]; [5]): -0.593
- thermal stability score (HeLa Kyoto [4]; cell cycle stage: mitosis): -0.58

Sequence: MLGLLVALLALGLAVFALLDVWYLVRLPCAVLRARLLQPRVRDLLAEQRFPGRVLPSDLDLLLHMNNARYLREADFARVAHLTRCGVLGALRELRAHTVLAASCARHRRSLRLLEPFEVRTRLLGWDDRAFYLEARFVSLRDGFVCALLRFRQHLLGTSPERVVQHLCQRRVEPPELPADLQHWISYNEASSQLLRMESGLSDVTKDQ [THEM6]
- solubility change mitosis (log2) (HeLa Kyoto [1]): -0.052
- melting temperature (HeLa Kyoto [2]; cell cycle stage: G1/S): 55.3 °C
- melting temperature (HeLa Kyoto [2]; cell cycle stage: mitosis): 53.8 °C
- solubility in G1/S (log2) (HeLa Kyoto [3]): -0.64
- thermal stability score (HeLa Kyoto [4]; [5]): -1.92
- thermal stability score (HeLa Kyoto [4]; cell cycle stage: mitosis): -2.82

Sequence: MATALSEEELDNEDYYSLLNVRREASSEELKAAYRRLCMLYHPDKHRDPELKSQAERLFNLVHQAYEVLSDPQTRAIYDIYGKRGLEMEGWEVVERRRTPAEIREEFERLQREREERRLQQRTNPKGTISVGVDATDLFDRYDEEYEDVSGSSFPQIEINKMHISQSIEAPLTATDTAILSGSLSTQNGNGGGSINFALRRVTSAKGWGELEFGAGDLQGPLFGLKLFRNLTPRCFVTTNCALQFSSRGIRPGLTTVLARNLDKNTVGYLQWRWGIQSAMNTSIVRDTKTSHFTVALQLGIPHSFALISYQHKFQDDDQTRVKGSLKAGFFGTVVEYGAERKISRHSVLGAAVSVGVPQGVSLKVKLNRASQTYFFPIHLTDQLLPSAMFYATVGPLVVYFAMHRLIIKPYLRAQKEKELEKQRESAATDVLQKKQEAESAVRLMQESVRRIIEAEESRMGLIIVNAWYGKFVNDKSRKSEKVKVIDVTVPLQCLVKDSKLILTEASKAGLPGFYDPCVGEEKNLKVLYQFRGVLHQVMVLDSEALRIPKQSHRIDTDG [DNAJC11]
- solubility change mitosis (log2) (HeLa Kyoto [1]): -0.0355
- melting temperature (HeLa Kyoto [2]; cell cycle stage: G1/S): 52.6 °C
- melting temperature (HeLa Kyoto [2]; cell cycle stage: mitosis): 52.3 °C
- solubility in G1/S (log2) (HeLa Kyoto [3]): -0.172
- thermal stability score (HeLa Kyoto [4]; [5]): 0.0819
- thermal stability score (HeLa Kyoto [4]; cell cycle stage: mitosis): -0.993

Sequence: MAGEGDQQDAAHNMGNHLPLLPAESEEEDEMEVEDQDSKEAKKPNIINFDTSLPTSHTYLGADMEEFHGRTLHDDDSCQVIPVLPQVMMILIPGQTLPLQLFHPQEVSMVRNLIQKDRTFAVLAYSNVQEREAQFGTTAEIYAYREEQDFGIEIVKVKAIGRQRFKVLELRTQSDGIQQAKVQILPECVLPSTMSAVQLESLNKCQIFPSKPVSREDQCSYKWWQKYQKRKFHCANLTSWPRWLYSLYDAETLMDRIKKQLREWDENLKDDSLPSNPIDFSYRVAACLPIDDVLRIQLLKIGSAIQRLRCELDIMNKCTSLCCKQCQETEITTKNEIFSLSLCGPMAAYVNPHGYVHETLTVYKACNLNLIGRPSTEHSWFPGYAWTVAQCKICASHIGWKFTATKKDMSPQKFWGLTRSALLPTIPDTEDEISPDKVILCL [CRBN]
- solubility change mitosis (log2) (HeLa Kyoto [1]): -0.303
- melting temperature (HeLa Kyoto [2]; cell cycle stage: G1/S): 53.7 °C
- melting temperature (HeLa Kyoto [2]; cell cycle stage: mitosis): 53.4 °C
- solubility in G1/S (log2) (HeLa Kyoto [3]): -0.152
- thermal stability score (HeLa Kyoto [4]; [5]): -0.823
- thermal stability score (HeLa Kyoto [4]; cell cycle stage: mitosis): -2.4

Sequence: MANEEDDPVVQEIDVYLAKSLAEKLYLFQYPVRPASMTYDDIPHLSAKIKPKQQKVELEMAIDTLNPNYCRSKGEQIALNVDGACADETSTYSSKLMDKQTFCSSQTTSNTSRYAAALYRQGELHLTPLHGILQLRPSFSYLDKADAKHREREAANEAGDSSQDEAEDDVKQITVRFSRPESEQARQRRVQSYEFLQKKHAEEPWVHLHYYGLRDSRSEHERQYLLCPGSSGVENTELVKSPSEYLMMLMPPSQEEEKDKPVAPSNVLSMAQLRTLPLADQIKILMKNVKVMPFANLMSLLGPSIDSVAVLRGIQKVAMLVQGNWVVKSDILYPKDSSSPHSGVPAEVLCRGRDFVMWKFTQSRWVVRKEVATVTKLCAEDVKDFLEHMAVVRINKGWEFILPYDGEFIKKHPDVVQRQHMLWTGIQAKLEKVYNLVKETMPKKPDAQSGPAGLVCGDQRIQVAKTKAQQNHALLERELQRRKEQLRVPAVPPGVRIKEEPVSEEGEEDEEQEAEEEPMDTSPSGLHSKLANGLPLGRAAGTDSFNGHPPQGCASTPVARELKAFVEATFQRQFVLTLSELKRLFNLHLASLPPGHTLFSGISDRMLQDTVLAAGCKQILVPFPPQTAASPDEQKVFALWESGDMSDQHRQVLLEIFSKNYRVRRNMIQSRLTQECGEDLSKQEVDKVLKDCCVSYGGMWYLKGTVQS [POLR3E]
- solubility change mitosis (log2) (HeLa Kyoto [1]): -0.0491
- melting temperature (HeLa Kyoto [2]; cell cycle stage: G1/S): 49.8 °C
- melting temperature (HeLa Kyoto [2]; cell cycle stage: mitosis): 49.9 °C
- solubility in G1/S (log2) (HeLa Kyoto [3]): 0.128
- thermal stability score (HeLa Kyoto [4]; [5]): 0.337
- thermal stability score (HeLa Kyoto [4]; cell cycle stage: mitosis): 0.588

Sequence: MERASLIQKAKLAEQAERYEDMAAFMKGAVEKGEELSCEERNLLSVAYKNVVGGQRAAWRVLSSIEQKSNEEGSEEKGPEVREYREKVETELQGVCDTVLGLLDSHLIKEAGDAESRVFYLKMKGDYYRYLAEVATGDDKKRIIDSARSAYQEAMDISKKEMPPTNPIRLGLALNFSVFHYEIANSPEEAISLAKTTFDEAMADLHTLSEDSYKDSTLIMQLLRDNLTLWTADNAGEEGGEAPQEPQS [SFN]
- solubility change mitosis (log2) (HeLa Kyoto [1]): 0.358
- melting temperature (HeLa Kyoto [2]; cell cycle stage: G1/S): 52.6 °C
- melting temperature (HeLa Kyoto [2]; cell cycle stage: mitosis): 53.1 °C
- solubility in G1/S (log2) (HeLa Kyoto [3]): 0.311
- thermal stability score (HeLa Kyoto [4]; [5]): -2.86
- thermal stability score (HeLa Kyoto [4]; cell cycle stage: mitosis): -2.25

Sequence: MAAAGGAEGRRAALEAAAAAAPERGGGSCVLCCGDLEATALGRCDHPVCYRCSTKMRVLCEQRYCAVCREELRQVVFGKKLPAFATIPIHQLQHEKKYDIYFADGKVYALYRQLLQHECPRCPELPPFSLFGDLEQHMRRQHELFCCRLCLQHLQIFTYERKWYSRKDLARHRMQGDPDDTSHRGHPLCKFCDERYLDNDELLKHLRRDHYFCHFCDSDGAQDYYSDYAYLREHFREKHFLCEEGRCSTEQFTHAFRTEIDLKAHRTACHSRSRAEARQNRHIDLQFSYAPRHSRRNEGVVGGEDYEEVDRYSRQGRVARAGTRGAQQSRRGSWRYKREEEDREVAAAVRASVAAQQQEEARRSEDQEEGGRPKKEEAAARGPEDPRGPRRSPRTQGEGPGPKETSTNGPVSQEAFSVTGPAAPGCVGVPGALPPPSPKLKDEDFPSLSASTSSSCSTAATPGPVGLALPYAIPARGRSAFQEEDFPALVSSVPKPGTAPTSLVSAWNSSSSSKKVAQPPLSAQATGSGQPTRKAGKGSRGGRKGGPPFTQEEEEDGGPALQELLSTRPTGSVSSTLGLASIQPSKVGKKKKVGSEKPGTTLPQPPPATCPPGALQAPEAPASRAEGPVAVVVNGHTEGPAPARSAPKEPPGLPRPLGSFPCPTPQEDFPALGGPCPPRMPPPPGFSAVVLLKGTPPPPPPGLVPPISKPPPGFSGLLPSPHPACVPSPATTTTTKAPRLLPAPRAYLVPENFRERNLQLIQSIRDFLQSDEARFSEFKSHSGEFRQGLISAAQYYKSCRDLLGENFQKVFNELLVLLPDTAKQQELLSAHTDFCNREKPLSTKSKKNKKSAWQATTQQAGLDCRVCPTCQQVLAHGDASSHQALHAARDDDFPSLQAIARIIT [ZNF598]
- solubility change mitosis (log2) (HeLa Kyoto [1]): 0.108
- melting temperature (HeLa Kyoto [2]; cell cycle stage: G1/S): 51.6 °C
- melting temperature (HeLa Kyoto [2]; cell cycle stage: mitosis): 51.1 °C
- solubility in G1/S (log2) (HeLa Kyoto [3]): -0.223
- thermal stability score (HeLa Kyoto [4]; [5]): -1.86
- thermal stability score (HeLa Kyoto [4]; cell cycle stage: mitosis): -0.526
